# Entries after “also recorded” stand apart in the source; their conditions may differ.
# B1: AB-16B5: anti-clusterin antibody, murine 16B5 (VL SEQ ID NO:7, VH SEQ ID NO:8), used in the mouse studies (antibody, V domains shown)
# VH: EVQLQQSGAELVKPGASVRLSCTTSGFNIKDIYMHWVKQRPEQGLEWIGRIDPAYGNTKYDPKFQGKATITADTSSNTAYLQLSSLTSEDTAVYYCARRYDTAMDYWGQGTSVTVSS
# VL: DIVMSQSPSSLAVSAGEKVTMSCKSSQSLLNSRTRKNYLAWYQQKPGQSPKLLIYWASTRESGVPDRFTGSGSGTDFTLTISSVQAEDLAVYYCKQSYNLWTFGGGTKLEFK
# modifications: Murine 16B5 VH; Murine 16B5 VL
# Key:
# Format in all cases: in vivo, Balb/c mice
# [1] = tested on: 4T1 mouse mammary carcinoma cells; test: Number of metastatic lung nodules in 4T1-implanted animals (Example 2); details: monotherapy IP for 5 weeks (Group 2 docetaxel 10 mg/kg weekly; Group 5 AB-16B5 twice weekly); counted Day 37
# Method: Five groups, each consisting of 10 female Balb/c mice were assigned to this study (see Table 1 below). All animals received subcutaneous implantation of 4T1 mouse mammary carcinoma cells in the 4th inguinal mammary gland. Treatment was initiated on the day of implantation (defined as Day 1). Animals from Group 1 (Gr. 1) received IP treatment of saline vehicle control twice a week for the duration of the study. Animals from Group 2 (Gr. 2) received 10 mg/kg of docetaxel weekly for five weeks by IP administration. Animals from Group 3 (Gr. 3) received 10 mg/kg of docetaxel weekly for two weeks and 10 mg/kg of AB-16B5, twice weekly for five weeks. Animals from Group 4 (Gr. 4) received 10 mg/kg of docetaxel weekly and 5 mg/kg of 16B5 twice weekly each over the course of a five weeks treatment. Animals from Group 5 (Gr. 5) received AB-16B5 twice weekly for five weeks. On Day 36, the primary tumors were excised and on Day 37, the animals were sacrificed and the number of grossly visible metastatic nodules on the surface of the lungs was counted.
# 4T1 primary tumors = test: CD45+ immune cells purified from excised 4T1 primary tumors (Example 2); details: monotherapy (Group 2 docetaxel; Group 5 AB-16B5); primary tumors excised at Day 16
# Excerpt: The primary tumors excised at Day 16 post implantation, were processed with collagenase and hyaluronidase and immune cells were purified by positive selection using magnetic latex beads coated with an anti-CD45 antibody. The purified cells were transferred into small petri dishes containing culture medium supplemented with IL2 and IL7 to perform phenotypic analyses.
# 4T1 lung metastases = test: Immunohistochemistry of lung metastases in 4T1-implanted mice (Example 1); details: 10 mg/kg IP thrice a week
# Excerpt: Balb/c mice were orthotopically implanted with 5×10^5 4T1 cells in the 4th mammary fat pad. Animals received IP saline treatment thrice weekly. The primary tumor was surgically removed at Day 16 post-implantation. The animals were sacrificed at Day 36 and the lungs were excised. Tissues were fixed in paraformaldehyde and processed for paraffin embedding. Tissue sections were probed with anti-mouse CD3, anti-mouse CD8 and anti-mouse B220 antibodies. […] Results presented in FIG. 1 indicate that the 4T1 lung metastases create an immune cold microenvironment which prevents the infiltration of B and T lymphocytes in tumors. Delineated regions indicate that CD3 and CD8 T lymphocytes are restricted in the tumor margin as a consequence of EMT.
# Animals bearing 4T1 tumors were treated with the AB-16B5 antibody (murine 16B5) thrice a week IP at 10 mg/kg. The primary tumor was surgically removed at Day 16 post-implantation. The animals were sacrificed at Day 36 and the lungs were excised. Tissues were fixed in paraformaldehyde and processed for paraffin embedding. Tissue sections were probed with anti-mouse CD3, anti-mouse CD8 and anti-mouse B220 antibodies.
Molecule,metastatic lung nodules [1],CD45+ immune cells in primary tumors (4T1 primary tumors),plasmocytes penetration in tumors (4T1 lung metastases; Day 36),"T lymphocyte infiltration of lung metastases (4T1 lung metastases; Day 36, anti-CD3, anti-CD8 staining)","lung metastases (number and size) (4T1 lung metastases; lungs excised Day 36, FIG. 2)"
CC(=O)O[C@@]12CO[C@@H]1C[C@H](O)[C@@]1(C)C(=O)[C@H](O)C3=C(C)[C@@H](OC(=O)[C@H](O)[C@@H](NC(=O)OC(C)(C)C)c4ccccc4)C[C@@](O)([C@@H](OC(=O)c4ccccc4)[C@H]21)C3(C)C [docetaxel],as many metastatic lung nodules as the saline control group; also recorded: relatively ineffective,very few CD45+ were present,,,
B1,less metastatic lung nodules than the saline-control-treated mice,more immune cells,evidence of plasmocytes penetration,densely infiltrated with CD3 and CD8 T cells,fewer and much smaller lung metastases

# Source: patent publication US20240207311A1, “TUMOR INFILTRATING LYMPHOCYTES THERAPY” (Alethia Biotherapeutics Inc., priority 2021, published 2024)
